In the assay the target is T1, IGF ligand 2 (IGF-2) (human, UniProt P01344 25-91).
T1 construct: Used as antigen in ELISA and as stimulus (10 nM) on MCF-7 cells; also called insulin-like growth factor 2
Description: ELISA. For orientation: In an ELISA, binding on a coated surface is turned into a signal by an enzyme label.

T1 sequence (P01344 25-91 limits assumed): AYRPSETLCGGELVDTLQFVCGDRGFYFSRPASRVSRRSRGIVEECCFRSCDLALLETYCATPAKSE

B1: m636 (VHH)
VHH: QVQLVQSGGGLVQPGGSLRLSCAASYYSLQHDNFPYTFMSWVRQAPGQRLEWVSGISGSGGSTYYADSVKGRFTISRDNSKNTLYLQMNTLRAEDTAMYYCARIRWLQDLDYWGQGTLVTVSS
notes: Human VH single domain antibody (dAb) selected from phage library m91; also called dAb m636; IGF-2 dAb
In the case of B1, the binding result is listed as “binds”.
